{"source": "IntAct's records for PubMed 18976803", "parents": {"B1": {"name": "Protein LDB19 (Saccharomyces cerevisiae), Q12502 (parent)", "chain": "MAFSRLTSTHQSNHNGYSNSNKKGQSLPLTLSIDVESPPCVLYGSAMESSGAVLSGLFTVTVVDPYSSAEDKSLKNTESNVSTTSKSLKRKSTFGSALSSRLSSLSASTSNISPSTSSTSISHSPTPANLRIMAGYTKITITSVTLSLVQKIHFHKPFVPNISSMQTCMNCKTKITNMKSWEIQSNTQDLSVGSHSYPFSYLIPGSVPCSSSLGATAETQVKYELIAVVTYIDPHRNSFSSGHSTPRKEGSSSKKRLLQLAMPIAVTRSIPRGPDKNSLRVFPPTELTAAAVLPNVVYPKSTFPLEMKLDGVSSGDRRWRMRKLSWRIEETTRVKAHACPVHKHELRQLEEQVKIKESEKSKKPRSHIKRYGELGPQIRVAVNSLENMPSQRLPGEPGREQAPNSSGPASTGNVGLDDENPVNEDEEDQPGSEFIHPSDDALRQELLMQQQRARQQQLQQELKNNSSLFTEEVRIISKGEMKSGWKTDFDNNGKIELVTEIDCMGLNSGVSNPVMHASTLQTPSTGNKKPSINVACDIQDPNLGLYVSHILAVEIVVAEETLQYANGQPIRKPNSKNKKETNNNTMNVHNPDQRLAELSPIFANRNTPKVRRMGPEDITPVNSNKSNHSTNKEKASNGASNSNIVSVPTGAARVLRMQFRLTVTERSGLGISWDEEVPPIYQDVELLSPPCYELSINNGIKNKLYSTMSTPVRSEDDFVGGSDEDIGNYESQGLEPGPNVQEVTITQNKLTIPPTAHHYQPASSSQRSLTTVQSPPLESVVSVQGSVPFRGHVLTPHSTRDIRIQNFSDFLDSNRITQ"}}, "data": [{"variants_of": "B1", "settings": "with rsp5_yeast RSP5, P39940", "values": [{"variant": "P679A;Y681A", "effect of a mutation on the interaction": "decreasing interaction"}, {"variant": "P690A;Y692A", "effect of a mutation on the interaction": "decreasing interaction"}]}]}
